Experimental data published in paper PMC6179282.

Key:
[1] = molecular target: Camelus dromedarius mu-class glutathione S-transferase (CdGSTM1) (Camelus dromedarius); experiment: cross-linking; 0.25% glutaraldehyde, room temperature, 15 min, CdGSTM1 0.5 mg/mL at pH 7.0, before and after SEC; SDS-PAGE
[2] = molecular target: Camelus dromedarius mu-class glutathione S-transferase (CdGSTM1) (Camelus dromedarius); experiment: cross-linking; 0.25% glutaraldehyde, room temperature, 15 min, CdGSTM1 0.5 mg/mL at pH 4.0, before and after SEC; SDS-PAGE
[3] = molecular target: Camelus dromedarius mu-class glutathione S-transferase (CdGSTM1) (Camelus dromedarius); experiment: SEC; analytical Superdex 200 Increase 10/300 GL, calibrated; CdGSTM1 2.5 mg/mL (also 0.25 mg loaded) in 50 mM phosphate buffer, 150 mM NaCl, pH 7.0
[4] = molecular target: Camelus dromedarius mu-class glutathione S-transferase (CdGSTM1) (Camelus dromedarius); experiment: SEC; Superdex 200 Increase, 0.25 mg CdGSTM1 equilibrated at pH 4.0, buffer with 150 mM NaCl at pH 4.0

Measured: stoichiometry N

Camelus dromedarius mu-class glutathione S-transferase (CdGSTM1) (enzyme)
2: [1] | [2] | [3] | [4]
